Results taken from patent publication US20100151003A1 (Janssen / Centocor, published 2010).
Where two headings read alike, the source gives them in different places. Bridges are numbered along the chain shown (N, C = ends). Where no end group is shown, it is not given here.

Legend:
[1] = target: T1, sEGFR-MMB (dimeric soluble EGFR ectodomain mimetibody) (human); experiment: phage ELISA on coated sEGFR-MMB, chemiluminescence; background typically <200 units
T1 construct: also called sEGFR mimetibody; sEGFR-Fc
T1 sequence (chain, as listed by the source limits assumed): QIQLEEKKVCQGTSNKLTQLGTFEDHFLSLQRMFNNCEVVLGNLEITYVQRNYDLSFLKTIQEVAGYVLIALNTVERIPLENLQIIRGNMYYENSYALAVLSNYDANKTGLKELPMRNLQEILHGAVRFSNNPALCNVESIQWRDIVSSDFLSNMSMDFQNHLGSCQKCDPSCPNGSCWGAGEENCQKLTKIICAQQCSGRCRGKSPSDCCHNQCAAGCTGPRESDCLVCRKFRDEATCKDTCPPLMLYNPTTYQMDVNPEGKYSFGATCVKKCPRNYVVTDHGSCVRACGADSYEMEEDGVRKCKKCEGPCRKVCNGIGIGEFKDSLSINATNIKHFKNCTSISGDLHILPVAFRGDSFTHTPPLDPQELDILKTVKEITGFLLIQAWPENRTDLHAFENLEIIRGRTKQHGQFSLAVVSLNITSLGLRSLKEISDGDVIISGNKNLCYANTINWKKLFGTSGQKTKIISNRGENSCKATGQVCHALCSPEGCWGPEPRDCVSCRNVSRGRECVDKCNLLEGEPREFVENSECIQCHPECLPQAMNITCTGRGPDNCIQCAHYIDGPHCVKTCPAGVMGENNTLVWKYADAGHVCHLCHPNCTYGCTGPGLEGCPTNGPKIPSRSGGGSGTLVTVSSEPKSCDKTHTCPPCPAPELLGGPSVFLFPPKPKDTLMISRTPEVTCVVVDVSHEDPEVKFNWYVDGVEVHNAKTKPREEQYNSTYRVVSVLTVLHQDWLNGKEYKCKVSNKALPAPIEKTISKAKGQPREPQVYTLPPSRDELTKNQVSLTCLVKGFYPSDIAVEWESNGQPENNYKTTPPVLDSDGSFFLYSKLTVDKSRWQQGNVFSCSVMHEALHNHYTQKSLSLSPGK

[2] = target: T2, Human extracellular EGFR-His6 (sEGFR-His6) (human, UniProt P00533 25-645); experiment: phage ELISA, coated sEGFR-His6
T2 construct: Monomeric, expressed in HEK293E, glycosylated; also called sEGFR-6×His; monomeric sEGFR

[3] = target: T1, sEGFR-MMB (dimeric soluble EGFR …); experiment: phage ELISA, coated sEGFR-MMB
[4] = target: T3, b-sEGFR-strep (human, UniProt P00533, biotinylated, sites not given); experiment: phage ELISA, biotinylated receptor captured on streptavidin
T3 construct: soluble ectodomain, monomeric, strep II tag; captured on streptavidin-coated wells; also called strepII-tagged sEGFR; strep II-tagged sEGFR purchased from Research Diagnostics

[5] = target: T4, biotinylated sEGFR-His6 (human, UniProt P00533 25-645, biotinylated (sites not given)); experiment: as above
T4 construct: Captured on streptavidin-coated wells in the ELISA; also called b-sEGFR-His; b-sEGFR-His6

[6] = target: T5, biotinylated sEGFR-MMB (human, biotinylated with sulfo-NHS-LC-biotin (sites not given)); experiment: as above
T5 construct: Captured on streptavidin-coated wells in the ELISA; also called b-sEGFR-MMB; b-sEGFR MMB
T5 sequence (chain, as listed by the source limits assumed): as above

[7] = target: T1, sEGFR-MMB (dimeric soluble EGFR …); experiment: phage ELISA on coated sEGFR-MMB; second bar with EGF 10 ug/ml as competitor
[8] = target: T1, sEGFR-MMB (dimeric soluble EGFR …); experiment: phage ELISA on coated sEGFR-MMB, chemiluminescence; background typically <200 units; remark: listed apart in the source
[9] = target: T6, Control-MMB (CNTO 360) (Homo sapiens (Human), UniProt P0DOX5 111-449 = IgG part); experiment: phage ELISA on coated Control-MMB [A]
T6 construct: Described as human IgG1 heavy chain dimer absent the variable and most of the CH1 domains; also called blank mimetibody scaffold protein

[10] = target: T7, Streptavidin; experiment: phage ELISA on streptavidin alone [C]
T7 construct: also called Streptavidin alone; SA

B1: phage P178 (pIX S17) (peptide)
peptide: GGGRWCYFWWITICELGGGSGGSGG
modifications: disulfide 6-14
notes: Tested as whole phage, pIX phagemid display; also called PP178; not shown: M13 coat protein pIX (display carrier at the C end)
ELISA signal [1]: 7910 units

B2: phage P194 (pIII CNL1-11) (peptide)
chain: AGSECFPLAPDWLSCILGG
notes: Tested as whole phage displaying the peptide on pIII; also called PHPEP194; not shown: M13 phage coat protein pIII, mature (TVESC...)
binding result [2]: binds | binding result [3]: binds

B3: phage P193 (pIII CNL1-11) (peptide)
chain: AGSYYWGYTVDIRRGG
notes: Tested as whole phage displaying the peptide on pIII; also called PHPEP193; not shown: M13 phage coat protein pIII, mature (TVESC...)
binding result [3]: binds

B4: phage P146 (pIII CNL5) (peptide)
chain: AGTLCRSFFHPLCYAGG
notes: Tested as whole phage displaying the peptide on pIII; also called PP146; PHPEP146; not shown: M13 phage coat protein pIII, mature (TVESC...)
binding result [4]: binds | binding result [5]: binds | binding result [6]: binds | binding result [7]: binds

B5: phage P145 (pIII CNL5) (peptide)
chain: AGVLCHRYYHPICYTGG
notes: Tested as whole phage displaying the peptide on pIII; also called PP145; PHPEP145; not shown: M13 phage coat protein pIII, mature (TVESC...)
binding result [4]: binds | binding result [5]: binds | binding result [6]: binds | binding result [7]: binds

B6: phage P143 (pIII CNL5) (peptide)
chain: AGVLCSNFYHPLCHSGG
notes: Tested as whole phage displaying the peptide on pIII; also called PP143; not shown: M13 phage coat protein pIII, mature (TVESC...)
binding result [4]: binds | binding result [5]: binds | binding result [6]: binds | binding result [7]: binds

B7: S20 library phage hit SEQ ID NO: 47 (peptide)
chain: GGGSVCVGTAFPGWMVCGP
notes: Tested as whole phage, pIX phagemid display
ELISA signal [8]: 4770 units

B8: S20 library phage hit SEQ ID NO: 43 (peptide)
chain: GGGPTCDSATRRVLTICAD
notes: as for B7
ELISA signal [8]: 5420 units

B9: phage P177 (pIX S16) (peptide)
peptide: GGGDACTMVFLWCSLGGGSGGSGG
modifications: disulfide 6-13
notes: Tested as whole phage, pIX phagemid display; also called PP177; not shown: M13 coat protein pIX (display carrier at the C end)
ELISA signal [1]: 8660 units

B10: S20 library phage hit SEQ ID NO: 44 (peptide)
chain: GGGWMCFLEGYGASLMCQC
notes: as for B7
ELISA signal [8]: 4800 units

B11: phage P176 (pIX S20) (peptide)
chain: GGGKTCVSTTFDLWFVCFA
modifications: disulfide 6-17; also: displayed on whole phage via pIX
notes: Tested as whole phage, pIX phagemid display; also called PP176
binding result [9]: no binding | binding result [10]: no binding | ELISA signal [8]: 37400 units

B12: S20 library phage hit SEQ ID NO: 46 (peptide)
chain: GGGYICTPSDIDSWYICYL
notes: as for B7
ELISA signal [8]: 6620 units

B13: S20 library phage hit SEQ ID NO: 45 (peptide)
chain: GGGDSCCSFLTDGTVVCSL
notes: as for B7
ELISA signal [8]: 9540 units

B14: S20 library phage hit SEQ ID NO: 49 (peptide)
chain: GGGLLCATTSFRDWFVCFT
notes: as for B7
ELISA signal [8]: 4510 units
